Measurements: US20210340516A1, “COMPOSITIONS CONTAINING ARGINASE 1 FOR THE TREATMENT OF NEUROVASCULAR AND RETINAL VASCULAR DISORDERS” (Augusta University Research Institute, Inc., priority 2020, published 2021)

What was measured:
[1] = tested on: primary rat retinal mixed neurons; experiment: Primary retinal mixed neurons subjected to OGD/R, LDH release assay; details: 6 hours OGD and 18 hours reperfusion, ABH 100 μM at reoxygenation
Protocol: Retinas from ten pups were collected and washed twice with ice-cold 1×PBS. They were digested with 0.5% trypsin for 3-4 min at 37° C., followed by trypsin inactivation with the culture medium, DMEM/F12 (Gibco, Grand Island, N.Y.) plus 10% FBS and 1% Penicillin-Streptomycin (P/S) solution (Invitrogen, Grand Island, N.Y.). The retina tissue was mechanically dissociated by pipetting several times until cells were dispersed. Cells were then filtered through a 40 μm nylon-mesh filter, collected by centrifugation at 1000 rpm for 10 min, re-suspended in culture medium, and plated in 6 or 12 well-cell culture plates (Corning, Corning, N.Y.) coated with Poly-D-lysine hydrobromide (PDL, Sigma) at a density of 0.5×10^6 cells/mL. The plates were maintained in a humidified CO2 incubator at 37° C. and 5% CO2. At days 1, 2, and 3 in vitro (DIV), half of the medium was aspirated and replaced with Neurobasal A medium containing 1×B-27 (GIBCO), 1× glutaMAX (GIBCO) and 1% P/S. Experiments were conducted at DIV 6.

[2] = native enzyme, comparison; cited from earlier work
[3] = tested on: mouse model of acute retinal ischemia; details: intravitreal injection (Fouda 2018); cited from earlier work

N[C@@H](CCCCB(O)O)C(=O)O [ABH, 2(S)-amino-6-boronohexanoic acid, reference compound]
cell death (LDH release) [1]: trend towards increased cell death

B1: native enzyme: native, non-PEGylated arginase, compared with PEG-A1 for half-life (protein, UniProt P05089 1-322, looked up)
Arginase-1: MSAKSRTIGIIGAPFSKGQPRGGVEEGPTVLRKAGLLEKLKEQECDVKDYGDLPFADIPNDSPFQIVKNPRSVGKASEQLAGKVAEVKKNGRISLVLGGDHSLAIGSISGHARVHPDLGVIWVDAHTDINTPLTTTSGNLHGQPVSFLLKELKGKIPDVPGFSWVTPCISAKDIVYIGLRDVDPGEHYILKTLGIKYFSMTEVDRLGIGKVMEETLSYLLGRKKRPIHLSFDVDGLDPSFTPATGTPVVGGLTYREGLYITEEIYKTGLLSGLDIMEVNPSLGKTPEEVTRTVNTAVAITLACFGLAREGNHKPIDYLNPPK
half-life in vivo [2]: a few minutes

B2: A1: arginase 1 given by intravitreal injection in an earlier study (Fouda 2018) (protein, UniProt P05089 1-322, looked up)
Arginase-1: MSAKSRTIGIIGAPFSKGQPRGGVEEGPTVLRKAGLLEKLKEQECDVKDYGDLPFADIPNDSPFQIVKNPRSVGKASEQLAGKVAEVKKNGRISLVLGGDHSLAIGSISGHARVHPDLGVIWVDAHTDINTPLTTTSGNLHGQPVSFLLKELKGKIPDVPGFSWVTPCISAKDIVYIGLRDVDPGEHYILKTLGIKYFSMTEVDRLGIGKVMEETLSYLLGRKKRPIHLSFDVDGLDPSFTPATGTPVVGGLTYREGLYITEEIYKTGLLSGLDIMEVNPSLGKTPEEVTRTVNTAVAITLACFGLAREGNHKPIDYLNPPK
neuroprotection in acute retinal ischemia [3]: showed neuroprotection
